Reference: US20240190950A1 (SHANGHAI JIAO TONG UNIVERSITY, published 2024)

B1: Gremlin1 (human gremlin 1, hGREM1) (ligand)
chain: KKKGSQGAIPPPDKAQHNDSEQTQSPQQPGSRNRGRGQGRGTAMPGEEVLESSQEALHVTERKYLKRDWCKTQPLKQTIHEEGCNSRTIINRFCYGQCNSFYIPRHIRKEEGSFQSCSFCKPKKFTTMMVTLNCPELQPPTKKKRVTRVKQCRCISIDLD
modifications: biotin label in the ForteBio assay (site not stated)
notes: also called Gremlin1-biotin; Flag-tagged GREM1
B2: 14E3 (antibody, IgG2a, V domains shown)
VH: QIQLVQSGPELKKPGETVKISCKTSGSTFTTYGMAWMKQAPGKGLTWMGWINTLSGEPTYADDFKGRFAFSLKTSANTAYLQINNLKNEDAATYFCAREPMDYWGQGTSVIVSS
VL: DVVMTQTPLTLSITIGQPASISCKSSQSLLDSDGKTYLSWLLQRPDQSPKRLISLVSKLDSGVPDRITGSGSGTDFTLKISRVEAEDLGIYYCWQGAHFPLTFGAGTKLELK
notes: also called anti-human-Gremlin1 (14E3); anti-human-GREM1 antibody 14E3

Columns and labels:
[1] = target: T1, FGFR1 (protein used in the ForteBio and ELISA assays) (human, UniProt P11362 22-376, limits assumed); assay: ForteBio (the text calls it surface plasmon resonance analysis); Gremlin1-biotin immobilized on streptavidin sensor, FGFR1 in solution
T1 construct: That entry still holds signal peptide, transmembrane and kinase parts; also called human FGFR1
T1 sequence: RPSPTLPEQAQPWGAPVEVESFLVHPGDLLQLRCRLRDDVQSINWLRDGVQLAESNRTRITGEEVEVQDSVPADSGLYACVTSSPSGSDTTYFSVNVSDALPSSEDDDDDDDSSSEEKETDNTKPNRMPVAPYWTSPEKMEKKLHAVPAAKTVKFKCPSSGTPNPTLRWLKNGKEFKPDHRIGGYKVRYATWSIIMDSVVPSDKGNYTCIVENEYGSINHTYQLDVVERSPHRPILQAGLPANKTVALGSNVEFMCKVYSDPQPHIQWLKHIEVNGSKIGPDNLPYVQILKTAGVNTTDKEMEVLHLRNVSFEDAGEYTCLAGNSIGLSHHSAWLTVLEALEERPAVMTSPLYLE
Text: We next asked the mechanism leading to the activation of the FGFR1/MEK/ERK signaling pathway by GREM1. We performed surface plasmon resonance analysis (Fortebio) to first assess whether GREM1 can bind to FGFR1. […] Computer simulation imitated that GREM1 binds to the extracellular domain of FGFR1 as a dimer (FIG. 9B). […] In addition, the activation of GREM1 on the FGFR1/MEK/ERK signaling pathway could be attenuated by adding excessive amount of soluble FGFR1 (FIG. 9G).

[2] = target: B1; assay: ELISA, antibody titrated on Gremlin1 (Ab is anti-human-Gremlin1 14E3)

Row | Binder | Kd [1] | EC50 (read off the curve) [2]
1 | B1 | 10.6 nM | –
2 | B2 | – | ~10 ng/mL
